# What was measured:
# human IL-31 (human) = human IL-31 (human) (UniProt Q6EBC2); assay: cell-based or functional assay
# [1] = target: cynomolgus IL-31-His (cynomolgus monkey (Macaca fascicularis)); assay: SPR (Biacore T200), cynomolgus IL-31-His captured via anti-His antibody, scFv as analyte
# Chain of human IL-31 (human) (Q6EBC2 24-164 limits assumed): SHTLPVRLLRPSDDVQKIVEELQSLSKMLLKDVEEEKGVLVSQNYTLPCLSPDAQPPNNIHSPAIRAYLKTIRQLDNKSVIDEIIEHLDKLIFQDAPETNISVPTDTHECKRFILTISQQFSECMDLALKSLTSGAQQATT
"IC50 [ng/ml], neutralization of hIL-31-induced signaling in IL-31RA/OSMR dimerization assay (human IL-31 (human)) [ng/mL]","rel. IC50 (IC50, BMS-981164/IC50, test sample), IL-31RA/OSMR dimerization assay (human IL-31 (human))",Kd [1] [nM],koff [1] [s⁻¹],kon [1] [M⁻¹ s⁻¹],Binder
8.07,0.78,1.14,0.000569,501000,PRO1901 (scFv) scFv: AFQLTQSPSSLSASVGDRVTITCQASQSIDSWLAWYQQKPGKPPKLLIYQASKLASGVPSRFSGSGSGTDYTLTISSLQPEDFATYYCQTYYGGGHIGWGFGTGTKVTVLGGGGGSGGGGSGGGGSGGGGSQSQLVESGGGSVQPGGSLRLSCAASGFSFSANYWICWVRQAPGKGLEWIVCIYIGSRADTYYAPWAKGRFTISKDNSKNTVYLQMNSLRAEDTATYFCARFSSGIYDLDRFFLWGQGTQVTVSS
7.98,1.49,1.39,0.000605,434000,PRO1903 (scFv) scFv: AFQLTQSPSSLSASVGDRVTITCQASQSIESWLAWYQQKPGKPPKLLIYQASKLASGVPSRFSGSGSGTDYTLTISSLQPEDFATYYCQTYYGGGHIGWGFGTGTKVTVLGGGGGSGGGGSGGGGSGGGGSQSQLVESGGGLVQPGGSLRLSCAASGFSFSANYWICWVRQAPGKGLEWIVCIYIGSRADTYYAPWAKGRFTISKDNSKNTVYLQMNSLRAEDTAVYFCARFSSGIYDLDRFFLWGQGTLVTVSS
371,0.03,3.38,0.00247,731000,PRO1902 (scFv) scFv: AFQLTQSPSSLSASVGDRVTITCQASQSIDSWLAWYQQKPGKPPKLLIYQASKLASGVPSRFSGSGSGTDYTLTISSLQPEDFATYYCQTYYGGGHIGWGFGTGTKVTVLGGGGGSGGGGSGGGGSGGGGSQSQLVESGGGLVQPGGSLRLSCAASGFSFSANYWICWVRQAPGKGLEWIVCISIGSRADTYYAPWAKGRFTISKDNSKNTVYLQMNSLRAEDTAVYFCARFSSGIYDLDRFFLWGQGTLVTVSS

# From patent US20240043547A1
